The source of these data is publication PMC3193169 (BMC Biotechnology, 2011).

“And” between values parts separate entries of the source, which are not always exact repeats. Identical values can stand only once.

Holding throughout (details): both partners purified
In assay [1] the target is Staphylococcus aureus enterotoxin B (SEB) toxin (Staphylococcus aureus, strain , UniProt P01552). The assay is described as follows: SPR. In general terms: In SPR one partner is held on a chip, and binding of the other changes the refractive index at the surface.
Assay [2] addresses staphylococcal enterotoxin A (SEA) (Staphylococcus aureus, strain , UniProt P0A0L2). The assay is described as follows: Luminex fluid array direct binding assay.
For assay [3], the target named is staphylococcal enterotoxin D (SED) (Staphylococcus aureus, strain , UniProt P20723). The experiment in a line: Luminex fluid array direct binding assay.
The next assay addresses Shiga Toxin 1 (STX-1) (Stx1 (phage H30 of Escherichia coli), …, UniProt P10149;P69178). The assay is described as follows: Luminex fluid array direct binding assay.

Sequence of Shiga Toxin 1 (STX-1) (P10149 23-315, chain 1 of 2): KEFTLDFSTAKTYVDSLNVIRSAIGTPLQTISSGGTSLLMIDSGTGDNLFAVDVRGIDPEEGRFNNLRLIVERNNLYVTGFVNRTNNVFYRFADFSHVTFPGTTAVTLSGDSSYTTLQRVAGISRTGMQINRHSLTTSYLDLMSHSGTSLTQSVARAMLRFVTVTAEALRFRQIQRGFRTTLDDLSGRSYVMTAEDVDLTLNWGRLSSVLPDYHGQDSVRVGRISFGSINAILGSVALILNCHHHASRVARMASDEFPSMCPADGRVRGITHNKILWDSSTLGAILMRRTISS
Sequence of Shiga Toxin 1 (STX-1) (P69178 21-89, chain 2 of 2): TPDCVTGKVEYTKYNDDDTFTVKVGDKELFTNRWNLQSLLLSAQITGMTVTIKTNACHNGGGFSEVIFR

B1: anti-SEB single domain antibody (sdAb) A3 (VHH)
VHH: EVQLVESGGGLVQAGDSLRLSCTASGRTFSRAVMGWFRQAPGKEREFVAAISAAPGTAYYAFYADSVRGRFSISADSAKNTVYLQMNSLKPEDTAVYYCAADLKMQVAAYMNQRSVDYWGQGTQVTVSS
As to B1, in assay [1], the koff was 6e-05 s⁻¹ and 2.2e-05 s⁻¹; the kon is 100000 M⁻¹ s⁻¹ and 290000 M⁻¹ s⁻¹.

B2: biotinylated sdAb A3 (VHH)
VHH: EVQLVESGGGLVQAGDSLRLSCTASGRTFSRAVMGWFRQAPGKEREFVAAISAAPGTAYYAFYADSVRGRFSISADSAKNTVYLQMNSLKPEDTAVYYCAADLKMQVAAYMNQRSVDYWGQGTQVTVSS
B2: in assay [1], the affinity, expressed as Kd, was 0.39 nM; the koff was determined as 2.8e-05 s⁻¹; the kon came to 72000 M⁻¹ s⁻¹. In addition, the binding result in assay [2] is given as “no binding”. Moreover, the binding result in assay [3] is reported as “no binding”. Further, the binding result with Shiga Toxin 1 (STX-1) is “no binding”.

As usually defined, the koff is the first-order rate constant of dissociation. A high value points to fast dissociation. For orientation: kon means the second-order rate constant of association. Read a low kon as slow association. What is called Kd is the concentration at which binding is half-saturated. Low readings indicate higher affinity, high ones lower affinity.
